Reference: patent US20150299281A1 (ZEALAND PHARMA A S, published 2015)
Square brackets hold non-standard residues; d marks the D form. Aib = CC(C)(N)C(=O)O

T1: human GIP receptor (human, UniProt P48546 22-466)
T1 sequence (looked up): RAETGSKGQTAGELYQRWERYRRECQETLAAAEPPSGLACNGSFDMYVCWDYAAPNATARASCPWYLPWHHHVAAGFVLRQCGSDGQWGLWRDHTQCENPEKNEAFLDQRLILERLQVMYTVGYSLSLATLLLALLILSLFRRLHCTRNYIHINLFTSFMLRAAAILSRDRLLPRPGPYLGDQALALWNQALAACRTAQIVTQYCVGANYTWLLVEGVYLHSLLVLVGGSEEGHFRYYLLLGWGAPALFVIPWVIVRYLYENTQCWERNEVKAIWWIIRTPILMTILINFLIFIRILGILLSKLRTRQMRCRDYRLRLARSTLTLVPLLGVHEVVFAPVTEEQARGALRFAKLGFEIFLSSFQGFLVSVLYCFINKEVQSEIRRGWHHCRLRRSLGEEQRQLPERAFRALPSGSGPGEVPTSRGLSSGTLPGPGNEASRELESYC

B1: Compound 2 (peptide)
peptide: H-Y[Aib]EGTFTSDYSI[Aib]LDKKAQRAFVEWLLAQGPSSGAPPPS-NH2
SMILES: CC[C@H](C)[C@H](NC(=O)[C@H](CO)NC(=O)[C@H](Cc1ccc(O)cc1)NC(=O)[C@H](CC(=O)O)NC(=O)[C@H](CO)NC(=O)[C@@H](NC(=O)[C@H](Cc1ccccc1)NC(=O)[C@@H](NC(=O)CNC(=O)[C@H](CCC(=O)O)NC(=O)C(C)(C)NC(=O)[C@@H](N)Cc1ccc(O)cc1)[C@@H](C)O)[C@@H](C)O)C(=O)NC(C)(C)C(=O)N[C@@H](CC(C)C)C(=O)N[C@@H](CC(=O)O)C(=O)N[C@@H](CCCCN)C(=O)N[C@@H](CCCCN)C(=O)N[C@@H](C)C(=O)N[C@@H](CCC(N)=O)C(=O)N[C@@H](CCCNC(=N)N)C(=O)N[C@@H](C)C(=O)N[C@@H](Cc1ccccc1)C(=O)N[C@H](C(=O)N[C@@H](CCC(=O)O)C(=O)N[C@@H](Cc1c[nH]c2ccccc12)C(=O)N[C@@H](CC(C)C)C(=O)N[C@@H](CC(C)C)C(=O)N[C@@H](C)C(=O)N[C@@H](CCC(N)=O)C(=O)NCC(=O)N1CCC[C@H]1C(=O)N[C@@H](CO)C(=O)N[C@@H](CO)C(=O)NCC(=O)N[C@@H](C)C(=O)N1CCC[C@H]1C(=O)N1CCC[C@H]1C(=O)N1CCC[C@H]1C(=O)N[C@@H](CO)C(N)=O)C(C)C
B2: Compound 16 (peptide)
peptide: H-Y[Aib]EGTFTSDYSIYLDSKAQRAFVNWLLA[Aib]K-NH2
SMILES: CC[C@H](C)[C@H](NC(=O)[C@H](CO)NC(=O)[C@H](Cc1ccc(O)cc1)NC(=O)[C@H](CC(=O)O)NC(=O)[C@H](CO)NC(=O)[C@@H](NC(=O)[C@H](Cc1ccccc1)NC(=O)[C@@H](NC(=O)CNC(=O)[C@H](CCC(=O)O)NC(=O)C(C)(C)NC(=O)[C@@H](N)Cc1ccc(O)cc1)[C@@H](C)O)[C@@H](C)O)C(=O)N[C@@H](Cc1ccc(O)cc1)C(=O)N[C@@H](CC(C)C)C(=O)N[C@@H](CC(=O)O)C(=O)N[C@@H](CO)C(=O)N[C@@H](CCCCN)C(=O)N[C@@H](C)C(=O)N[C@@H](CCC(N)=O)C(=O)N[C@@H](CCCNC(=N)N)C(=O)N[C@@H](C)C(=O)N[C@@H](Cc1ccccc1)C(=O)N[C@H](C(=O)N[C@@H](CC(N)=O)C(=O)N[C@@H](Cc1c[nH]c2ccccc12)C(=O)N[C@@H](CC(C)C)C(=O)N[C@@H](CC(C)C)C(=O)N[C@@H](C)C(=O)NC(C)(C)C(=O)N[C@@H](CCCCN)C(N)=O)C(C)C
B3: Compound 17 (peptide)
peptide: H-Y[Aib]EGTFTSDYSIYLDEKAQRAFVNWLLA[Aib]K-NH2
SMILES: CC[C@H](C)[C@H](NC(=O)[C@H](CO)NC(=O)[C@H](Cc1ccc(O)cc1)NC(=O)[C@H](CC(=O)O)NC(=O)[C@H](CO)NC(=O)[C@@H](NC(=O)[C@H](Cc1ccccc1)NC(=O)[C@@H](NC(=O)CNC(=O)[C@H](CCC(=O)O)NC(=O)C(C)(C)NC(=O)[C@@H](N)Cc1ccc(O)cc1)[C@@H](C)O)[C@@H](C)O)C(=O)N[C@@H](Cc1ccc(O)cc1)C(=O)N[C@@H](CC(C)C)C(=O)N[C@@H](CC(=O)O)C(=O)N[C@@H](CCC(=O)O)C(=O)N[C@@H](CCCCN)C(=O)N[C@@H](C)C(=O)N[C@@H](CCC(N)=O)C(=O)N[C@@H](CCCNC(=N)N)C(=O)N[C@@H](C)C(=O)N[C@@H](Cc1ccccc1)C(=O)N[C@H](C(=O)N[C@@H](CC(N)=O)C(=O)N[C@@H](Cc1c[nH]c2ccccc12)C(=O)N[C@@H](CC(C)C)C(=O)N[C@@H](CC(C)C)C(=O)N[C@@H](C)C(=O)NC(C)(C)C(=O)N[C@@H](CCCCN)C(N)=O)C(C)C

Key:
human GLP-1 receptor = human GLP-1 receptor (human, UniProt P43220 24-463); test: cell-based or functional assay
human GIP receptor = target: T1, human GIP receptor; test: cell-based or functional assay

Row | Binder | EC50, cAMP induction in HEK293 cells expressing human GLP-1 R (human GLP-1 receptor) | EC50, cAMP induction in HEK293 cells expressing human GIP R (human GIP receptor)
1 | B1 | 15 pM | 6.8 pM
2 | B2 | 12 pM | 53 pM
3 | B3 | 7.4 pM | 21 pM
